According to paper PMC12409452:

biological target: mitochondrial electron transport chain complex III2 (UniProt P22695); test: BN-PAGE immunoblot (Ndufb8), band quantification; details: A549 cells transfected with Ndufs1 plasmid; respirasome band CIn+CIIIn+CIVn normalised to free CI band; n = 3, mean ± SD; parent: est. 0.04; read off a plot
Chain of UniProt P22695 (P22695 whole entry, looked up, one chain of several): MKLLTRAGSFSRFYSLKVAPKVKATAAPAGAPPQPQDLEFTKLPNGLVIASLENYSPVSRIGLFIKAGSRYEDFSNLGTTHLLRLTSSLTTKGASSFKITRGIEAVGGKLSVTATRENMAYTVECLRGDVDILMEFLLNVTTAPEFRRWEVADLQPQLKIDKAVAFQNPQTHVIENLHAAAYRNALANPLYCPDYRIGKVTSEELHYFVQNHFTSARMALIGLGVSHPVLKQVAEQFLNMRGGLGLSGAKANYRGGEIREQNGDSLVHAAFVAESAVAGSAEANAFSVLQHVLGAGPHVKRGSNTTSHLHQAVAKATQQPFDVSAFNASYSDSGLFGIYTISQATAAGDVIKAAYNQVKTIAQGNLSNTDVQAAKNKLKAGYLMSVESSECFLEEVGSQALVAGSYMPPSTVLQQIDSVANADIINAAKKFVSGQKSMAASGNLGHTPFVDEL

Substance | other: Relative Respirasome level (vs CI)
mitochondrial electron transport chain complex I with wild-type Ndufs1 (from UniProt P28331;O95169) C75D | 1.9
mitochondrial electron transport chain complex I with wild-type Ndufs1 (from UniProt P28331;O95169) C78D | 1.4
mitochondrial electron transport chain complex I with wild-type Ndufs1 (from UniProt P28331;O95169) C554D | 1.1

Now from value to substance:

other: Relative Respirasome level (vs CI) | Substance
1.9 | mitochondrial electron transport chain complex I with wild-type Ndufs1 (from UniProt P28331;O95169) C64D
1.5 | mitochondrial electron transport chain complex I with wild-type Ndufs1 (from UniProt P28331;O95169) C92D
0.15 | mitochondrial electron transport chain complex I with wild-type Ndufs1 (from UniProt P28331;O95169) C367D
1.2 | mitochondrial electron transport chain complex I with wild-type Ndufs1 (from UniProt P28331;O95169) C564D
1 | mitochondrial electron transport chain complex I with wild-type Ndufs1 (from UniProt P28331;O95169) C727D
